Measurements published in ChEMBL document CHEMBL3864159, “Variation of the aryl substituent on the piperazine ring within the 4-(piperazin-1-yl)-2,6-di(pyrrolidin-1-yl)pyrimidine scaffold unveils potent, non-competitive inhibitors of the inflammatory caspases” (Bioorg Med Chem Lett, 2016).

What was measured:
[1] = compound: c1ccc(CCN2CCN(c3cc(N4CCCC4)nc(N4CCCC4)n3)CC2)cc1; experiment: (§1) Non-competitive inhibition of human recombinant N-terminal His-tagged DTT-activated caspase-1 expressed in Escherichia coli assessed as enzyme Vmax at 50 nM using Ac-WEHD-AMC as substrate preincubated for 30 mins followed by substrate addition by Michaelis-Menten plot analysis (reference value: 13162 +/- 1446 RFU/min)
[2] = compound: c1ccc(CCN2CCN(c3cc(N4CCCC4)nc(N4CCCC4)n3)CC2)cc1; experiment: as §1, with “500” for “50”
[3] = compound: c1ccc(CCN2CCN(c3cc(N4CCCC4)nc(N4CCCC4)n3)CC2)cc1; experiment: as §1, with “Km” for “Vmax”, “500” for “50”, “8.18” for “13162”, “2.9 uM)” for “1446 RFU/min)”
[4] = compound: c1ccc(CCN2CCN(c3cc(N4CCCC4)nc(N4CCCC4)n3)CC2)cc1; experiment: as §1, with “Km” for “Vmax”, “8.18” for “13162”, “2.9 uM)” for “1446 RFU/min)”

B1: Caspase-1 (Homo sapiens), P29466 (protein)
chain: MADKVLKEKRKLFIRSMGEGTINGLLDELLQTRVLNKEEMEKVKRENATVMDKTRALIDSVIPKGAQACQICITYICEEDSYLAGTLGLSADQTSGNYLNMQDSQGVLSSFPAPQAVQDNPAMPTSSGSEGNVKLCSLEEAQRIWKQKSAEIYPIMDKSSRTRLALIICNEEFDSIPRRTGAEVDITGMTMLLQNLGYSVDVKKNLTASDMTTELEAFAHRPEHKTSDSTFLVFMSHGIREGICGKKHSEQVPDILQLNAIFNMLNTKNCPSLKDKPKVIIIQACRGDSPGVVWFKDSVGVSGNLSLPTTEEFEDDAIKKAHIEKDFIAFCSSTPDNVSWRHPTMGSVFIGRLIEHMQEYACSCDVEEIFRKVRFSFEQPDGRAQMPTTERVTLTRCFYLFPGH
Vmax [1]: 4440 RFU/min
Vmax [2]: 2840 RFU/min
Km [3]: 5.75 µM
Km [4]: 5.76 µM
